In US9642898B2, “Use of serine protease inhibitors in the treatment of neutropenia” (Med Discovery S.A., priority 2009, dated 2017):
One block for each molecule: values may come before it.

What was measured:
neutrophils [1] = test: Annexin-V staining / FACS analysis of neutrophil apoptosis in vitro; assay type: cell-based, human
Description: (§1) To assess viability of neutrophils in-vitro, peripheral blood from healthy donors was erythrocyte-lyzed and neutrophils or peripheral blood mononuclear cells (PBMCs) were isolated. Cultures in RPMI10%FCS were performed in 96 well microtiter plates (5×10^5cells/well) unless otherwise stated. The percentage of apoptotic neutrophils or PBMCs was assessed based on binding of fluorescent Annexin V-protein binding or measuring of CD11b or CD16 surface expression by FACS (fluorescent activated cell sorter) analysis.
(§2) Cells were incubated for 24 or 48 hours with MDPK67b at concentrations ranging from 6 μM to 60 μM, as indicated, or PBS as control. Apoptosis was assessed by Annexin V staining and FACS analysis. Indicated leukocyte populations were gated based on their appearance in a forward scatter/sideward scatter FACS dot plot (neutrophils) or by positive staining for CD3 (T cells).
Neutrophils were incubated for 18 hours with MDPK67b or MDOKG9 concentrations ranging from 60 μM (dilution 1) to […] as indicated. Apoptosis was assessed as outlined above.
Neutrophils were cultured with the indicated concentrations of MDPK67b. PBS without MDPK67b served as a control. Neutrophils were plated (100 μl/well) either at 5×10^6/ml (high density) or 3×10^5/ml (low density) and neutrophil apoptosis was assessed by AnnexinV staining and FACS analysis. Culturing of 5×10^6/ml neutrophils in serum free medium (X-Vivo 15) instead of RPMI10% FCS was assessed in parallel.
(§3) Neutrophils were cultured with the indicated concentrations of MDPK67b in presence or absence of the Src tyrosine kinase inhibitor PP2 (final concentration 10 μM). Apoptosis and relative frequencies of CD11b and CD16 high expressing neutrophils were measured by FACS analysis.
Neutrophils were cultured with the indicated concentrations of G-CSF and neutrophil Apoptosis (FIG. 6A) and down-regulation of CD 16 expression (FIG. 6B) were analyzed by FACS. FIG. 6C: Neutrophils were cultured with MDPK67b (0.6 μM) and titrated amounts of G-CSF (concentrations as indicated). Neutrophils cultured in medium and PBS (without MDPK67b) served as a control.
Cells were incubated during 18 hours with MDPK67b (6 μM) plus Etoposid (125 μg/ml), Etoposid alone or PBS. Apoptosis was assessed by Annexin V staining and FACS analysis. Relevant leukocyte populations were gated based on their appearance in a forward scatter or sideward scatter FACS dot plot.
Cells were incubated for 18 hours with MDPK67b (0.06 μM) alone or MDPK67b (0.06 μM) plus increasing concentrations of Etopsid (in μg/ml) as indicated or PBS. Apoptosis was assessed by Annexin V staining and FACS analysis was performed as mentioned above.

neutrophils [2] = test: CD16 / CD11b surface expression of cultured neutrophils by FACS; assay type: cell-based, human
Description: as §1
Neutrophils were cultured with the indicated concentrations of MDPK67b and percentage of neutrophils expressing high levels of CD16 or CD11b was assessed by FACS. Representative FACS plots are shown.
as §3

T cells = test: Annexin-V staining / FACS analysis of T cells (CD3 positive); assay type: cell-based, human; details: 24 or 48 hours
Description: as §1, §2

monocytes or lymphocytes = test: Annexin-V staining / FACS analysis of monocytes or lymphocytes (PBMCs); assay type: cell-based, human
Description: as §1, §2

neutrophils [3] = test: Annexin-V staining / FACS analysis of neutrophil apoptosis in vitro; assay type: cell-based, human; details: doses ranging from 60 μM down to 0.6 μM; 18, 24 or 48 hours; PBS control
hK2 = hK2 (Homo sapiens, UniProt P20151); test: Inhibition of kallikrein hK2 by chimeric serpin; assay type: biochemical
Excerpt: These chimeric inhibitor proteins have been obtained by modifying the RSL of α1-antichymotrypsin (rACT), which is known to inhibit a large panel of human enzymes such as chymotrypsin, mast cell chymase , cathepsin G , prostatic kallikreins hK2 and PSA (hK3), in order to change the specificity of this serpin. Peptide sequences, selected as substrates for the enzyme hK2 by phage display technology as explained in International Patent Application PCT/IB2004/001040, have been used to replace the scissile bond and neighbor amino acid residues of the RSL. Recombinant inhibitors were produced in bacteria and purified by affinity chromatography.

hK3 = hK3 (Homo sapiens, UniProt P07288); test: Inhibition of kallikrein hK3 by chimeric serpin; assay type: biochemical
[4] = neutrophils cultured with MDPK67b plus kinase inhibitor (PP2 final concentration 10 μM)

hK3, sequence (P07288 25-261): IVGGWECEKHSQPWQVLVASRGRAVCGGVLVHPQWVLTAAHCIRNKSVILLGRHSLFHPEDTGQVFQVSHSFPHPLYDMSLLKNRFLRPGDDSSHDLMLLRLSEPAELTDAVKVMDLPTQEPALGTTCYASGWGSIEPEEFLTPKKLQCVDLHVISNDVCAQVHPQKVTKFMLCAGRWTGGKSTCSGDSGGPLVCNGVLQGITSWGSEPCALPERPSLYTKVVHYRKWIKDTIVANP
hK2, sequence (P20151 25-261): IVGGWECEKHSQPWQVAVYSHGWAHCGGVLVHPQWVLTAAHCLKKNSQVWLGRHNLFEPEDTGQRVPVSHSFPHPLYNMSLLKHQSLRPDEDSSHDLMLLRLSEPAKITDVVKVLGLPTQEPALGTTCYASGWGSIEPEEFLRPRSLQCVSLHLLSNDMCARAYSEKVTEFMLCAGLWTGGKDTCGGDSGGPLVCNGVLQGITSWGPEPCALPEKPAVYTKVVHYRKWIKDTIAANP

Molecule: CC(C)(C)n1nc(-c2ccc(Cl)cc2)c2c(N)ncnc21 [PP2, reference compound]
- reversal of the decreased apoptosis in the presence of MDPK67b by kinase inhibitor (neutrophils [1]; [4]): can be reversed
- reversal of the increased frequency of CD11b high expressing neutrophils in the presence of MDPK67b by kinase inhibitor (neutrophils [2]; [4]): can be reversed

Molecule: COc1cc([C@@H]2c3cc4c(cc3[C@@H](O[C@@H]3O[C@@H]5CO[C@@H](C)O[C@H]5[C@H](O)[C@H]3O)[C@H]3COC(=O)[C@H]23)OCO4)cc(OC)c1O [Etoposid, reference compound]
- block of the apoptosis reducing effect of MDPK67b (neutrophils [1]; Etoposid up to 125 μg/ml, 18 hours): only partially block

B1: G-CSF (protein, UniProt P09919 31-207, looked up)
Granulocyte …: TPLGPASSLPQSFLLKCLEQVRKIQGDGAALQEKLVSECATYKLCHPEELVLLGHSLGIPWAPLSSCPSQALQLAGCLSQLHSGLFLYQGLLQALEGISPELGPTLDTLQLDVADFATTIWQQMEELGMAPALQPTQGAMPAFASAFQRRAGGVLVASHLQSFLEVSYRVLRHLAQP
notes: present agent used for the treatment of neutropenia
- effect on neutrophil apoptosis, alone (neutrophils [1]; G-CSF alone, indicated concentrations): only a mild protecting effect

B2: MDPK67b: chimeric inhibitor protein specific for hK2, modified RSL of α1-antichymotrypsin; amino acid sequence SEQ ID NO 16 (protein)
chain: MHPNSPLDEENLTQENQDRGTHVDLGLASANVDFAFSLYKQLVLKAPDKNVIFSPLSISTALAFLSLGAHNTTLTEILKGLKFNLTETSEAEIHQSFQHLLRTLNQSSDELQLSMGNAMFVKEQLSLLDRFTEDAKRLYGSEAFATDFQDSAAAKKLINDYVKNGTRGKITDLIKDLDSQTMMVLVNYIFFKAKWEMPFDPQDTHQSRFYLSKKKWVMVPMMSLHHLTIPYFRDEELSCTVVELKYTGNASALFILPDQDKMEEVEAMLLPETLKRWRDSLEFREIGELYLPKFSISRDYNLNDILLQLGIEEAFTSKADLSGITGARNLAVSQVVHKAVLDVFEEGTEASAATAVKIKLRTTLVETRTIVRFNRPFLMIIVPTDTQNIFFMSKVTNPKQA
- protection of neutrophils from apoptosis compared to G-CSF (neutrophils [1]): Superior Effect
- apoptosis of neutrophils under various culture conditions (neutrophils [1]; 5×10^6/ml (high density) or 3×10^5/ml (low density), RPMI10% FCS or serum free medium (X-Vivo 15)): inhibits apoptosis of neutrophils in vitro independently of cell density and presence or absence of serum
- cytostatic drug-induced apoptosis of neutrophils (neutrophils [1]; 18 hours, MDPK67b (6 μM or 0.06 μM) plus Etoposid): Reduces Cytostatic Drug-induced Apoptosis of Neutrophils
- effect of MDPK67b on neutrophil apoptosis in presence of G-CSF (neutrophils [1]; MDPK67b (0.6 μM) and titrated amounts of G-CSF): not affected by G-CSF
- T-cell survival (Annexin V staining) (T cells): No Significant Effect on T-cell Survival
- apoptosis of monocytes or lymphocytes (monocytes or lymphocytes): did not inhibit apoptosis of monocytes or lymphocytes
- frequency of neutrophils that express CD16 and CD11b at high levels (neutrophils [2]; indicated concentrations of MDPK67b): increases dose-dependently
- apoptosis of neutrophils (Annexin V staining) (neutrophils [3]): inhibit apoptosis of neutrophils

- inhibition of kallikrein hK2 (hK2): able to inhibit
- inhibition of kallikrein hK3 (hK3): able to inhibit
B3: MDCI: chimeric inhibitor: P3-P3′ of rACTWT RSL replaced by RSL of Protein C inhibitor; SEQ ID No 14 (protein)
chain: MRGSHHHHHHSRHPNSPLDEENLTQENQDRGTHVDLGLASANVDFAFSLYKQLVLKAPDKNVIFSPLSISTALAFLSLGAHNTTLTEILKGLKFNLTETSEAEIHQSFQHLLRTLNQSSDELQLSMGNAMFVKEQLSLLDRFTEDAKRLYGSEAFATDFQDSAAAKKLINDYVKNGTRGKITDLIKDLDSQTMMVLVNYIFFKAKWEMPFDPQDTHQSRFYLSKKKWVMVPMMSLHHLTIPYFRDEELSCTVVELKYTGNASALFILPDQDKMEEVEAMLLPETLKRWRDSLEFREIGELYLPKFSISRDYNLNDILLQLGIEEAFTSKADLSGITGARNLAVSQVVHKAVLDVFEEGTEASAATAVKITFRSALVETRTIVRFNRPFLMIIVPTDTQNIFFMSKVTNPKQA
